Drawing on patent US20190359719A1, this text covers Ka and Kd for one substance.

As a reminder, the Kd is the free concentration of one partner at which half of the binding sites on the other are occupied at equilibrium, for simple one-to-one binding. A higher Kd goes with weaker binding.

The target in the test is c-Met (UniProt P08581). Description: Biacore SPR. For orientation: Surface plasmon resonance follows binding to a sensor surface in real time, without labels.
c-Met, sequence (P08581 25-932): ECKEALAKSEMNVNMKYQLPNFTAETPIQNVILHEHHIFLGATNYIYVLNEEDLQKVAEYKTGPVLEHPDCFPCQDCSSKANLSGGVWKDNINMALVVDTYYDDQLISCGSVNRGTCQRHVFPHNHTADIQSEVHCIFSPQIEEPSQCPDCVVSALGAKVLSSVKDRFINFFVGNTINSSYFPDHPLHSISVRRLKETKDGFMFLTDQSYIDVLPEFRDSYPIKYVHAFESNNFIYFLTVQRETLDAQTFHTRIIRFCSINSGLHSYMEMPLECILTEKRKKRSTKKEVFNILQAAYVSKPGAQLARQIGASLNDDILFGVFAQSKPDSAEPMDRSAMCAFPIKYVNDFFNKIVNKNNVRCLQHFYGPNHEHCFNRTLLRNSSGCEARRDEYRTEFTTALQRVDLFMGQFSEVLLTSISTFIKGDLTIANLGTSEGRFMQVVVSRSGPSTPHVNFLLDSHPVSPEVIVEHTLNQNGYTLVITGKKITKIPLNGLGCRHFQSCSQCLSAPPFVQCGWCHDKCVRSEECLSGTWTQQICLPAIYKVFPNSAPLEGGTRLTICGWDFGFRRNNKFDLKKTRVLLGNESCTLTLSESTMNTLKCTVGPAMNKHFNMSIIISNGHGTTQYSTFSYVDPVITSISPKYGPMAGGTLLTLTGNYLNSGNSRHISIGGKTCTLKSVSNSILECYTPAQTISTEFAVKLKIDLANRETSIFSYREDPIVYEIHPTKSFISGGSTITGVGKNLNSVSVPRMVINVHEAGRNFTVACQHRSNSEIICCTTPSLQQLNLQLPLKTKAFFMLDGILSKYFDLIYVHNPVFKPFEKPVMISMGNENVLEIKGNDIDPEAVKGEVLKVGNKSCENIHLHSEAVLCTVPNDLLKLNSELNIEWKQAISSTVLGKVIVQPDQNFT

5D5 came in with a Ka of 5.89e+09 M⁻¹ and an equilibrium dissociation constant (Kd) of 0.17 nM.
